Experimental data from patent US5719021A, “Protein activation” (University of Medicine and Dentistry of New Jersey, dated 1998).
Read-outs that look alike come from different tables or passages of the source.

Tests used:
subtilisin E = molecular target: T1, subtilisin E (Bacillus subtilis, UniProt P04189); assay: Competitive inhibition of subtilisin E by synthetic pro-peptides; type: biochemical; conditions: competitive inhibitor
T1 construct: 77 residues for the amino-terminal pro-peptide plus 275 residues for the mature subtilisin; made in house
T1 sequence (P04189 107-381): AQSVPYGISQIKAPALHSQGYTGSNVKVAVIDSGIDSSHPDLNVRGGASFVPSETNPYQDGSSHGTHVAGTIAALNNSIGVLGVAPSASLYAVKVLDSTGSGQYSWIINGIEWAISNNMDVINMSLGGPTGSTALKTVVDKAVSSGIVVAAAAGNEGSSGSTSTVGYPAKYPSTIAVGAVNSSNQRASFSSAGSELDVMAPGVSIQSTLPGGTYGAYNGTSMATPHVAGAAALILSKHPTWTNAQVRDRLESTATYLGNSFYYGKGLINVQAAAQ
Description: 5. The synthetic pro-peptide is able to specifically bind to the active center of subtilisin.

denatured subtilisin E = molecular target: T2, denatured subtilisin E (Bacillus subtilis, UniProt P04189); assay: Renaturation (intermolecular refolding) of denatured subtilisin E with exogenously added pro-peptide; type: biochemical
T2 construct: 77 residues for the amino-terminal pro-peptide plus 275 residues for the mature subtilisin; made in house
T2 sequence (P04189 107-381): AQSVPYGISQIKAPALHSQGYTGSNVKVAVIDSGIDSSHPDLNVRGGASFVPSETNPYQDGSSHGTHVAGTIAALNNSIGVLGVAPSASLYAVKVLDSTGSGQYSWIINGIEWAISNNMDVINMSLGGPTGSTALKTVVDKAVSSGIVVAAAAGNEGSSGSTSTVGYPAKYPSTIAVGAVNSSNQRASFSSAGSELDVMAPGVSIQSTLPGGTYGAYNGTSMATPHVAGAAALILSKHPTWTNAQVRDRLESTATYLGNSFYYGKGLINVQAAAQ
Description: The studies established that denatured subtilisin (without the pro-peptide)cannot be renatured to active subtilisin.
The pro-peptide of 77 residues for subtilisin E (see FIG. 1) was synthesized.
(§1) Other synthetic activating sequences were reacted with a selected polypeptide, in this case subtilisin, as described by Ohta et al. in Molecular Microbiology, 5(6), 1507-1510 (1991), which is incorporated herein by reference (and cofiled herewith). Active subtilisin was obtained.
(§2) The concentration of the activating peptide is preferably in a molar ratio of one of the activating protein to the polypeptide to be activated. At higher and lower concentration than 1 to 1, the renaturation yield was not as high; when the ratio exceeded 1, inhibition was observed. The activating peptide appears to act an inhibitor of the activated polypeptide.
(§3) Different concentrations of the different synthetic peptides were used a shown in the above-cited reference. The mixture of synthetic and polypeptide was dialyzed against 10 mM sodium phosphate, pH 7.0, that also contained 0.5M (NH4)2 SO4, 2 mM CaCl2 and 10 μm of 3,5-bis-trifluoromethylbenzeneboronic acid (BTFBA), a serine protease inhibitor.

pro-subtilisin E = molecular target: T3, pro-subtilisin E (Bacillus subtilis, UniProt P04189); assay: In vitro processing of denatured pro-subtilisin to active subtilisin by dialysis; type: biochemical; conditions: for Processing/conversion to active mature subtilisin: in vitro dialysis, e.g. 0.2M sodium phosphate pH 6.2
T3 construct: Pro-subtilisin consists of 352 amino acid residues; 77 residues for the amino-terminal pro-peptide plus 275 residues for the mature subtilisin; E. coli OmpA signal peptide (N); made in house; host or cells: E. coli (inclusion bodies)
T3 sequence (P04189 30-381 limits assumed): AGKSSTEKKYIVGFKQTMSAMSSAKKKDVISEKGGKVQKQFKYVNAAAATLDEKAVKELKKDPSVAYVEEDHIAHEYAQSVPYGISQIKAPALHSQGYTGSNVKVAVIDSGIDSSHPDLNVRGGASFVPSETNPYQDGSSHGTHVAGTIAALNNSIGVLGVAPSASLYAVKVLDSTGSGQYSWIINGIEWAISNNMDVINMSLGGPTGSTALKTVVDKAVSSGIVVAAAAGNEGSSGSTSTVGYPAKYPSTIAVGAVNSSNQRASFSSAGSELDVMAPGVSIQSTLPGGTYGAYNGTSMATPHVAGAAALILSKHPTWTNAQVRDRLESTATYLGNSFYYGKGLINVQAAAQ
Description: Pro-subtilisin thus produced was solubilized in 6M guanidine-HCl and purified to homogeneity in the presence of 5M urea.
Its N-terminal amino acid sequence and the mobility in SDS-polyacrylamide gel electrophoresis were identical to those of authentic subtilisin.
It is interesting to note that the processing reaction to active subtilisin was independent of the pro-subtilisin concentration. Thus, the conversion is a first-order reaction.
The pro-subtilisin was in solution in a denaturant like guanidine-HCl or urea to prevent autoprocesssing to active subtitisin. For best results, the work was carried out with urea.
The method for activating the polypeptide comprises contacting it with the selected activating peptide. For pro-subtilisin E the efficiency of the conversion to active subtilisin E is independent of the pro-subtilisin concentration, indicating a first order reaction. The reaction is carried out in an appropriate buffer medium. […] At higher concentration, the ammonium sulfate appears to inhibit the proper folding of the polypeptide. When sulfate is used as the anion, there may be used as cations Na^+, K^+, and Li^+ or NH4^+ and equivalent others. Most efficient processing was obtained with 0.5M (NH4)2 SO4 in a 10 mM Tri-HCl buffer (at pH7.0), containing 1 mM CaCl2. Under these conditions, 1 mg of pro-subtilisin produced 89 U of subtilisin activity.

[1] = molecular target: T4, denatured subtilisin BPN' (Bacillus amyloliquefaciens, UniProt P00782); assay: Renaturation of denatured subtilisin BPN' with exogenously added pro-peptide; type: biochemical; conditions: for Efficiency of renaturation of denatured subtilisin BPN' relative to the pro-77-mer: relative to pro-77-mer
T4 sequence (P00782 108-382): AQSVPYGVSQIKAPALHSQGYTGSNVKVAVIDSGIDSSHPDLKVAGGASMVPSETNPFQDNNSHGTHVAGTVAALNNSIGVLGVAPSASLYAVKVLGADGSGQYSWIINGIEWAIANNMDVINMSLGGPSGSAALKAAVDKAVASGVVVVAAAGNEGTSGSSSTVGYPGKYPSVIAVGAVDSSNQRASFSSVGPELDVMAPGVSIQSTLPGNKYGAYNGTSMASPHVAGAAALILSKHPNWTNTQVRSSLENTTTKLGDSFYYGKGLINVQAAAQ
Description: Similarly, pro-peptides corresponding to -1 to -77, -1 to -68 and -1 to -63 for subtilisin BPN' were synthesized (See FIG. 1).
as §1, §2, §3

subtilisin BPN' = molecular target: T5, subtilisin BPN' (Bacillus amyloliquefaciens); assay: competitive inhibition of enzyme activity
T5 chain: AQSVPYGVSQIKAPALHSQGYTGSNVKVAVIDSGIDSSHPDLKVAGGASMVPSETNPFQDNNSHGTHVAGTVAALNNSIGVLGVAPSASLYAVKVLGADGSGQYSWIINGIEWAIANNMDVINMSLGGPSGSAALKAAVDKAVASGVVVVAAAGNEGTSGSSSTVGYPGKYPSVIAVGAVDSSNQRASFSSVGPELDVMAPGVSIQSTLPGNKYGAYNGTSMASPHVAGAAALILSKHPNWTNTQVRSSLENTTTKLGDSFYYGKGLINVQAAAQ

subtilisin Carlsberg = molecular target: T6, subtilisin Carlsberg (Bacillus licheniformis, UniProt P00780); assay: Renaturation of acid-denatured subtilisin Carlsberg with exogenously added pro-peptide; type: biochemical
T6 construct: denatured subtilisin (without the pro-peptide)cannot be renatured to active subtilisin
Description: This pro-peptide variant was effective even though there are quite a number of amino acid substitutions in both subtilisins BPN' and Carlsberg when compared with subtilisin E (See FIG. 1).

[2] = molecular target: T7, subtilisin E (Bacillus subtilis); assay: competitive inhibition of enzyme activity
T7 chain: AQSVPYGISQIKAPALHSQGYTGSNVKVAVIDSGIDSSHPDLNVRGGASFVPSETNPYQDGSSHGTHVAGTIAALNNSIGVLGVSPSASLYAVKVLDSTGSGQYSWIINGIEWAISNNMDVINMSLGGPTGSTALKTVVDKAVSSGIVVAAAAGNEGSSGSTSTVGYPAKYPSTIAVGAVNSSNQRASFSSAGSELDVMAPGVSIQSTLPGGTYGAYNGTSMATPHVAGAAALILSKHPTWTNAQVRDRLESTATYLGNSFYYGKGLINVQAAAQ

Q: What does the source list for “synthetic pro-peptide of -1 to -77 for subtilisin E: synthesized pro-peptide of 77 residues (-1 to -77) for subtilisin E”?
A: Ki (subtilisin E; listed as synthetic pro-peptide): 540 nM; Ki (subtilisin E; read-out: Ki as competitive inhibitor of subtilisin E): ≤ 540 nM; Refolding/renaturation of denatured subtilisin E to active enzyme (denatured subtilisin E): able to intermolecularly complement the refolding

Q: O=S(=O)(F)Cc1ccccc1 [phenylmethanesulfonyl fluoride, reference compound] was tested. Which “Inhibition of the processing of pro-subtilisin to active subtilisin” value (pro-subtilisin E) did it give?
A: unable to inhibit

B1: pro-63-mer (from -1 to -63) for subtilisin BPN' (peptide)
peptide: KQTMSTMSAAKKKDVISEKGGKVQKQFKYVDAASATLNEKAVKELKKDPSVAYVEEDHVAHAY
Q: With B1 as the molecule, how does the “Efficiency of renaturation of denatured subtilisin BPN' relative to the pro-77-mer” value [1] read?
A: 30-40%

Q: And the Ki (subtilisin BPN')?
A: 790 nM

B2: processed subtilisin: active subtilisin obtained by in vitro processing of pro-subtilisin E (protein, UniProt P04189 107-381, looked up)
Subtilisin E: AQSVPYGISQIKAPALHSQGYTGSNVKVAVIDSGIDSSHPDLNVRGGASFVPSETNPYQDGSSHGTHVAGTIAALNNSIGVLGVAPSASLYAVKVLDSTGSGQYSWIINGIEWAISNNMDVINMSLGGPTGSTALKTVVDKAVSSGIVVAAAAGNEGSSGSTSTVGYPAKYPSTIAVGAVNSSNQRASFSSAGSELDVMAPGVSIQSTLPGGTYGAYNGTSMATPHVAGAAALILSKHPTWTNAQVRDRLESTATYLGNSFYYGKGLINVQAAAQ
Q: B2 was tested. Which “Specific activity of processed subtilisin relative to authentic subtilisin E” value (pro-subtilisin E) did it give?
A: approximately half

B3: pro-subtilisin E: pro-subtilisin produced in E. coli as inclusion bodies, solubilized in 6M guanidine-HCl and purified in 5M urea (protein)
chain: AGKSSTEKKYIVGFKQTMSAMSSAKKKDVISEKGGKVQKQFKYVNAAAATLDEKAVKELKKDPSVAYVEEDHIAHEYAQSVPYGISQIKAPALHSQGYTGSNVKVAVIDSGIDSSHPDLNVRGGASFVPSETNPYQDGSSHGTHVAGTIAALNNSIGVLGVSPSASLYAVKVLDSTGSGQYSWIINGIEWAISNNMDVINMSLGGPTGSTALKTVVDKAVSSGIVVAAAAGNEGSSGSTSTVGYPAKYPSTIAVGAVNSSNQRASFSSAGSELDVMAPGVSIQSTLPGGTYGAYNGTSMATPHVAGAAALILSKHPTWTNAQVRDRLESTATYLGNSFYYGKGLINVQAAAQ
Q: For B3, which “Subtilisin activity produced from 1 mg of pro-subtilisin” value (pro-subtilisin E; 0.5M (NH4)2SO4 in 10 mM Tris-HCl pH 7.0, 1 mM CaCl2) is on record?
A: 89 U

Q: And the “Conversion efficiency of pro-subtilisin to active subtilisin” value (pro-subtilisin E; calculated from 89 U versus 470 U)?
A: approximately 20%

Q: What about the “Theoretical maximum activity for 1 mg of pro-subtilisin E” value (pro-subtilisin E; estimated) of the same molecule?
A: 470 U

Q: And the “Processing/conversion to active mature subtilisin” value (“Processing/conversion” below) (pro-subtilisin E)?
A: converted to active subtilisin

B4: pro-subtilisin E with the Asp32 to Asn active site mutation: pro-subtilisin E with active site mutation Asp32 to Asn, used as exogenous pro-peptide source (protein, UniProt P04189 30-381, looked up, variant D32N)
pro-form: AGKSSTEKKYIVGFKQTMSAMSSAKKKDVISEKGGKVQKQFKYVNAAAATLDEKAVKELKKDPSVAYVEEDHIAHEYAQSVPYGISQIKAPALHSQGYTGSNVKVAVINSGIDSSHPDLNVRGGASFVPSETNPYQDGSSHGTHVAGTIAALNNSIGVLGVAPSASLYAVKVLDSTGSGQYSWIINGIEWAISNNMDVINMSLGGPTGSTALKTVVDKAVSSGIVVAAAAGNEGSSGSTSTVGYPAKYPSTIAVGAVNSSNQRASFSSAGSELDVMAPGVSIQSTLPGGTYGAYNGTSMATPHVAGAAALILSKHPTWTNAQVRDRLESTATYLGNSFYYGKGLINVQAAAQ
modifications: pro-form
Q: Which “Renaturation of acid-denatured subtilisin BPN'” value ([1]; acid-denatured) does the source give for B4 here?
A: able to renature

Q: And the “Refolding/renaturation of denatured subtilisin E to active enzyme” value (denatured subtilisin E)?
A: active subtilisin is formed

Q: And the “Processing/conversion” value (pro-subtilisin E; listed as pro-subtilisin with an active site mutation (Asp32 to Asn))?
A: cannot be autoprocessed

Q: And the “Processing/conversion” value (pro-subtilisin E; listed as pro-subtilisin with an active-site mutation (aspartic acid at position 32 to asp))?
A: unable to be processed

Q: What about the “Renaturation of acid-denatured subtilisin Carlsberg” value (subtilisin Carlsberg) of the same molecule?
A: able to renature

B5: pro-68-mer (from -1 to -68) for subtilisin BPN' (peptide)
peptide: YIVGFKQTMSTMSAAKKKDVISEKGGKVQKQFKYVDAASATLNEKAVKELKKDPSVAYVEEDHVAHAY
Q: For B5, which “Efficiency of renaturation of denatured subtilisin BPN' relative to the pro-77-mer” value [1] is on record?
A: 30-40%

Q: And the Ki (subtilisin BPN')?
A: 760 nM

B6: Streptomyces subtilisin inhibitor: inhibitor tested on processing of pro-subtilisin to active subtilisin (protein)
chain: DAPSALYAPSALVLTVGKGVSATTAAPERAVTLTCAPGPSGTHPAAGSACADLAAVGGDLNALTRGEDVMCPMVYDPVLLTVDGVWQGKRVSYERVFSNECEMNAHGSSVFAF
Q: Which “Inhibition of the processing of pro-subtilisin to active subtilisin” value (pro-subtilisin E) does the source give for B6 here?
A: unable to inhibit

B7: synthetic pro-peptide of -1 to -77 for subtilisin E (peptide)
peptide: AGKSSTEKKYIVGFKQTMSAMSSAKKKDVISEKGGKVQKQFKYVNAAAATLDEKAVKELKKDPSVAYVEEDHIAHEY
modifications: not checked
Q: B7 was tested. Which Ki [2] did it give?
A: < 540 nM

B8: pro-77-mer (from -1 to -77) for subtilisin BPN' (peptide)
peptide: AGKSNGEKKYIVGFKQTMSTMSAAKKKDVISEKGGKVQKQFKYVDAASATLNEKAVKELKKDPSVAYVEEDHVAHAY
Q: What does the source list for B8?
A: Effectiveness for the renaturation of denatured subtilisin BPN' [1]: most effective; Ki (subtilisin BPN'): 380 nM
